The supplement of paper PMC10567573
± gives the standard deviation.

Test: protein stability index of a GFP-peptide fusion (GPS, HEK-293T) (PSI 1-6); higher = more stable
[1] = treatment: DMSO, c terminus: a fixed tail appended
[2] = treatment: MLN4924 1 uM, 8 h, c terminus: a fixed tail appended
[3] = treatment: DMSO, c terminus: native
[4] = treatment: MLN4924 1 uM, 8 h, c terminus: native
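Also: 24-mer peptide tiles fused after GFP, lentivirally expressed, FACS-sorted into six equal bins by GFP/DsRed ratio, decoded by Illumina sequencing, PSI is the read-weighted mean bin number.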

Sequence	protein stability index [1]	protein stability index [2]	protein stability index [3]	protein stability index [4]
KFLASHFPNRTDQQCQYRWLRVLN [MYBL2]	2.19 ± 0.46	2.2 ± 0.29		
LLTNNSGTPKDHDSPENGADSFES [ETS2]	5.2 ± 0.26	5.22 ± 0.12		
AEEKEQLLHNDEYQETMVESTFMY [USP39]	4.69 ± 0.27	4.8 ± 0.2		
AGQKRKHSEGRVEVYYDGQWGTVC [LOXL2]	2.87 ± 1.3	3.35 ± 1		
NSSTWGSLKQALKGLSVEFALLAD [SNX8]	2.39 ± 0.55	2.45 ± 0.36		
LEGYISNLRKQLETLSGDRVRLDS [KRT71]	3.17 ± 0.4	3.26 ± 0.35		
VPTTPGPASGSTFRGRRDVSGSWE [RETREG3]	4.37 ± 0.2	4.44 ± 0.15		
KAQLPRRESERRNHSLARHADILA [FBXO28]	3.85 ± 0.11	3.96 ± 0.14		
MMRTQCLLGLRTFVAFAAKLWSFF [CTDNEP1]	4.22 ± 0.2	4.02 ± 0.29		
GELRSKSGHKLYIFLFQDILVLTR [NET1]	2.5 ± 0.66	1.75 ± 0.27		
FTKNNFFVEKNPTIVNFPITNVDL [USP39]	2.98 ± 0.52	2.7 ± 0.29		
LEDKLRLLAQARDEAQGACLQQKQ [LRRC45]	4.49 ± 0.33	4.19 ± 0.22		
YEIPHFRLKKVENIKIWLSLRSYL [PHTF1]	2.8 ± 1	2.92 ± 0.9		
PIAPEVEDPEENPYGPPPDAVQTS [RBBP5]	5.56 ± 0.17	5.54 ± 0.19		
CHCLKGFTLNPDKKTCRRINYCAL [MATN2]	2.5 ± 0.24	2.14 ± 0.18		
PYAMKPIDYYTETKILQERAVLGA [NSDHL]	2.85 ± 0.14	3.06 ± 0.18		
GLVKKYMNSLLIGELSPEQPSFEP [FADS1]	2.25 ± 0.089	2.34 ± 0.45		
RLPRAIGMSLAKELIFSARVLDGK [AUH]	1.83 ± 0.39	1.9 ± 0.2		
APLQADLTEQVWKVQDALQNQSDS [SCARA5]	5.26 ± 0.24	5.24 ± 0.28		
WKIALLFVAFALCMFCLYSFMPLV [SLC35F2]	2.19 ± 0.51	2.69 ± 0.46		
RAVLKYLYTGELDENERDLMHIAH [RHOBTB2]	2.34 ± 0.13	2.49 ± 0.27		
KLLNRCCHLFSTYVASHKIEKEEQ [ACBD3]	2.21 ± 0.1	2.23 ± 0.28		
EMRFAKMPDEPVEAPALPAPAAPM [BRD3]	4.66 ± 0.078	4.8 ± 0.24		

Sequence	protein stability index [1]	protein stability index [2]	protein stability index [3]	protein stability index [4]
HKRISAFRALQHSYLHKDEGNPE [CDK4]			4.15 ± 0.26	4.04 ± 0.47
PKPLTRKPILLQRMEGSQEVVNMA [WDFY2]	3.66 ± 0.049	3.65 ± 0.41		
NEEIRAVGRLKRERSMSENAVRQN [MFF]	5.15 ± 0.2	4.87 ± 0.27		
GWVSGQLRYSVVEESEPGTLVGNV [PCDHGC5]	3.03 ± 0.24	3.07 ± 0.22		
FFYPLVEDPYMMGRIACANVLSDL [SEPHS2]	2.38 ± 0.46	2.19 ± 0.47		
PCSFVCWYRPMYKAFRSDSSFNFF [SCAMP3]	2.86 ± 0.77	2.6 ± 0.5		
LPGWEDIESKIPLNMEEPPVEEPE [SLC19A2]	5.51 ± 0.32	5.24 ± 0.23		
HWALRVTPGLGVVAVLLLFLVVRE [SPNS1]	2.83 ± 0.47	2.79 ± 0.59		
YLQIFATRRSCIDESQISAEEAED [FAM189A2]	3.71 ± 0.14	3.92 ± 0.32		
YLLHPAAFHGAPSHLPTRSPSFPE [TBX6]	2.49 ± 0.28	2.87 ± 0.26		
LDPRYKRLPFLSAFERQQVENRVV [ZBED1]	3.36 ± 0.091	3.47 ± 0.13		
LHGKAIKVEQAKKPSFQSGGRRRP [RBMY1A1]	3.89 ± 0.2	4.21 ± 0.16		
AAQEGHLELVKYLLAAGANVHATT [ANKRD17]	2.34 ± 0.3	2.74 ± 0.35		
FGIKCAKCQVGFSSSDLVMRARDS [ISL2]	2.37 ± 0.32	2.54 ± 0.58		
GLFAVGEHTGEVRTARALLDRDAL [PCDHGA10]	3.84 ± 0.57	3.81 ± 0.29		
YKGHTDVVRYLLEQRADPNAKAHC [FEM1B]	3.27 ± 0.44	3.6 ± 0.17		
ISDFGRQQLLPPFPSLHQSLPQNQ [EHMT1]	3.45 ± 0.14	3.28 ± 0.23		
PRYREDPCKQCKKKYVKGDVSLCR [FBXO34]	2.99 ± 0.45	3.35 ± 0.24		
KPGNNEGSGAPSPLSKSSPATTVT [SNAP91]	5.21 ± 0.11	5.1 ± 0.13		
DVTSGDHGDYFRLLLPGIYTVSAT [CPN1]	2.29 ± 0.57	2.02 ± 0.23		
ETELSLRQLVEADINGLRRILDEL [KRT36]	3.12 ± 0.3	3.36 ± 0.34		
FHYLVFDLVTGGELFEDIVAREYY [CAMK2B]	3.21 ± 0.4	3.05 ± 1		
SDSGKDLPEPSKRGPPHGWPKLCP [MYCL]	4.27 ± 0.1	4.63 ± 0.078		

Sequence	protein stability index [1]	protein stability index [2]	protein stability index [3]	protein stability index [4]
RLHHPHKSVQHVVLQALFYLLDRA [PTPN9]	2.28 ± 0.21	2.13 ± 0.36		
ERLNKEYQEIFQQLQRSWVKMDQK [TRIM43]	3.23 ± 0.3	3.39 ± 0.55		
PELTAALRDIRAQYESIAAKNLQE [PRPH]	3.52 ± 0.65	3.8 ± 0.48		
WEEAAPGRAVEHAMFLGDAAAHWY [MYORG]	3.05 ± 0.47	3.15 ± 0.22		
FSVAPHETQTQRGGEFQCGLEAAS [RNF180]	3.37 ± 0.41	3.36 ± 0.14		
KGEYEVAEGIGSTVFRAILDYYKT [BTBD10]	2.43 ± 0.4	2.35 ± 0.41		
ASSGLTVEVDAPKSQDLAKIMADI [KRT18]	4.45 ± 0.3	4.57 ± 0.057		
ELDAIIEEVDEDGSGTIDFEEFLV [TNNC2]	4.4 ± 0.22	4.33 ± 0.23		
LRRWLRANLAASGGYAIAVVLLQG [TSPAN10]	2.43 ± 0.68	2.35 ± 0.075		
AKVPRPPSTLLPTPEEQGELEPLK [FOXJ1]	5.19 ± 0.23	5.3 ± 0.18		
DEELGGSSRVPVGGGPEATLSISD [ZBTB22]	5.37 ± 0.18	5.42 ± 0.06		
NQKSDIWALGCVLYELASLKRAFE [NEK8]	2.38 ± 0.72	2.41 ± 0.34		
GHVLLTDSEFSMQEPMVPAKLGTQ [PPFIA4]	4.31 ± 0.1	3.94 ± 0.26		
ALMHTLQRHRDILQVIYWARDVFI [GOSR1]	2.84 ± 0.5	2.26 ± 0.47		
RGTHLWEFIRDILIHPELNEGLMK [ELF3]	2.54 ± 0.59	2.31 ± 0.42		
SEGSSSSSSSSSSSSSSASSSASS [NFE2L1]	5.57 ± 0.16	5.53 ± 0.2		
KSSLIWSYPAGSLTFPVRPFFYTG [TRIM43]	2.19 ± 0.26	2.08 ± 0.18		
EEALRKNTEEQLEIALAPYQHLEE [MTUS2]	5.27 ± 0.18	5.22 ± 0.23		
LKTSRKDVKDKETTENENTKFEVR [CHGB]	5.03 ± 0.11	5.22 ± 0.092		
DVPTIQEKVNEGKYRSYEEFKADA [ZMYND11]	5.21 ± 0.3	5.26 ± 0.15		
LEEYITDEQKEEEEEEGEEEELIR [FAM9B]	5.37 ± 0.15	5.59 ± 0.33		
YAPSCAKCKKKITGEIMHALKMTW [PDLIM7]	2.53 ± 0.33	2.44 ± 1		
NKLQTLSPSHKGIAAPHAGANVKP [ZC2HC1A]	4.35 ± 0.16	4.457 ± 0.035		

Sequence	protein stability index [1]	protein stability index [2]	protein stability index [3]	protein stability index [4]
GLDPEPLPLMDLCRRSIRSALGRQ [SPSB4]	3.79 ± 0.23	3.75 ± 0.18		
KPGPITLTVAKCWDPSPRGCFTLP [DVL3]	2.41 ± 0.32	2.59 ± 0.11		
STQMFQTKRCFRLAPTFSNLLLQP [SMG5]	2.16 ± 0.4	2.12 ± 0.2		
FVRGQEFKAHKSVLAARSPVFNAM [SPOPL]	2.66 ± 0.45	2.83 ± 0.34		
QFVSSVPRCDLVDLGEGKICFCCE [FAM189A2]	2.67 ± 0.37	2.98 ± 0.6		
EDDAQSRRDEQDDDDKGDSKETRL [GOLPH3]	5.54 ± 0.21	5.66 ± 0.17		
VLVHCEAGISRSPTICMAYLMKTK [DUSP5]	2.77 ± 0.61	2.39 ± 0.41		
QKNFNNLYGTKGNYTSRVWEYSSS [TRIM29]	2.31 ± 0.4	2.51 ± 0.12		
GGYFKARLKFPIDYPYSPPAFRFL [CDC34]	2.82 ± 0.33	2.58 ± 0.51		
GDLQDTKENREEARFQDKQYSSHH [CHGB]	5.18 ± 0.21	5.02 ± 0.35		
YFYHRETENEEQTQLTQNAVSCPY [KCNA4]	3.88 ± 0.34	3.96 ± 0.17		
TWRHRETLIIAVLVSASIANLWLW [FATE1]	3.2 ± 0.37	2.77 ± 0.26		
EFKADAQLLLHNTVIFYGADSEQA [ZMYND11]	3.06 ± 0.32	3.32 ± 0.23		
QQLAAEPVPTGFFNMWGFGRVSKQ [WDR41]	3.56 ± 0.35	3.49 ± 0.25		
NVQRLAEPSQMLKHAVVNLINYQD [CTNNB1]	2.66 ± 0.18	2.83 ± 0.12		
LSQAPAEGPDLVPAALGSLTTAQI [HES6]	4.35 ± 0.32	4.36 ± 0.61		
PYVSDGNFSNYYVAHPPVTYSQPY [TENT5C]	2.55 ± 0.39	2.62 ± 0.38		
KISGGPRISYPLLHEWALREGEE [MAGEA6]			2.68 ± 0.52	3.02 ± 0.65
SSLFSVEANSSNSQKNEKALTNIQ [C8orf76]	4.93 ± 0.2	4.73 ± 0.21		
QEQRLGIRISMSHEEEPLGTAGPL [GMPPB]	4.82 ± 0.21	4.79 ± 0.34		
